Test results as given in patent US20140227324A1.

Biological target: mouse IL12Rβ1 (IL12 Receptor Beta 1, transmembrane-containing form) (mouse) (UniProt Q60837)
Experiment: cell-based or functional assay

Chain of UniProt Q60837 (Q60837 20-738): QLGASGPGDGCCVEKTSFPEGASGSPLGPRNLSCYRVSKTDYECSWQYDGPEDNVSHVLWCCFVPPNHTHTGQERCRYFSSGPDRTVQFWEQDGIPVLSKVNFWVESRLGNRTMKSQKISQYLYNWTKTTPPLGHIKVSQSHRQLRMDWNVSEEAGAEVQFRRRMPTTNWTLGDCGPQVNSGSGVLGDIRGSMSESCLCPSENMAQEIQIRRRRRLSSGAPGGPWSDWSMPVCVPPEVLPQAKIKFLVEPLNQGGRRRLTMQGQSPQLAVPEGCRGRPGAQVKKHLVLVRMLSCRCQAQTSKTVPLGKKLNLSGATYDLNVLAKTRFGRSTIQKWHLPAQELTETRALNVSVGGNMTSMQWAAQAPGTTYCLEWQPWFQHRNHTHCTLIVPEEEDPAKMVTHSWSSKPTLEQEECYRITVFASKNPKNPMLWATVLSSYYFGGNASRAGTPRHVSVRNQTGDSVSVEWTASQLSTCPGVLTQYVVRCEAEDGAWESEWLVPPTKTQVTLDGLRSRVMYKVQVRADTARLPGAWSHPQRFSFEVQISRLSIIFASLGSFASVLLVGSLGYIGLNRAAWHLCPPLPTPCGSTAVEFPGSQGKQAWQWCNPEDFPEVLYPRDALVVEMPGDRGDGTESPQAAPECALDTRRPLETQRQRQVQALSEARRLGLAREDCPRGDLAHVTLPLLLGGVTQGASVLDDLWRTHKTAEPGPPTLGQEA

Substance | STAT4 activity (GAS-promoter luciferase reporter), IL12Rβ1ΔTM co-transfected alongside IL12Rβ1 and IL12Rβ2 [% increase] | NIH/3T3 migration toward IL12(p40)2, IL12Rβ1ΔTM co-transfected alongside IL12Rβ1 [% increase]
IL12 (ligand) | 30 | –
IL12(p40)2 (ligand) | – | 50
